This is an account of results in US20240425572A1 (REGENXBIO, published 2024).

For the assay, the target named is T1, fragment of the LEM peptide having the amino acid sequence of LEMPSSLMLEVP (SEQ ID NO: 2).
T1 peptide: LEMPSSLMLEVP
Put plainly: MSD binding assay (format for the fragment not detailed). The protocol: LEM peptide specific rabbit polyclonal and monoclonal antibodies were produced using standard laboratory technologies. Binding affinity of the antibodies was assessed using MSD experiment performed according to the manufacturer's protocols. MSD plates were coated with 1 mg/ml of peptide in PBS and blocked with casein in PBS. Anti-rabbit sulfo-tagged antibody was used as the detection agent. Antibody binding specificity was assessed using control reactions that included the target peptide to inhibit binding. […] None of the antibodies tested can bind to a fragment of the LEM peptide having the amino acid sequence of […] (SEQ ID NO: 2).

B1: 130D2-1 (antibody, V domains shown)
VH: QSLAESGGRLVTPGTPLTLTCTVSGVDLSYYPMTWVRQAPGKGLEYIGIILHNGTSCYARWARGRFTISKTSTTVELRITSPTTEDTATYFCARASVASIVGSSDIWGPGTLVTVSS
VL: LVLTQTPSSVSAAVGGTVTINCQSSQSVYKNSALSWYQQKPGQPPKLLIYGASTLASGVPSRFSGNGSGTQFTLTISGVQCADAATYYCTGAINDEIHAFGGGTEVVVR
notes: Rabbit monoclonal IgG; also called 130D2-1 monoclonal anti-LEM antibody; anti-LEM mAb
In the case of B1, the binding result is recorded as “no binding”.
